Source: publication PMC2836575
pKd: −log10 of the molar value.

Key:
[1] = molecular target: aprataxin FHA domain, recombinant, wild type (human) (UniProt Q7Z2E3); assay: ITC
[2] = molecular target: aprataxin FHA domain, recombinant, Lys38Ala (human) (UniProt Q7Z2E3); assay: ITC

Row | Substance | pKd [1] | pKd [2]
1 | MDC1 14-residue peptide phosphorylated on S329 and T331 | 5.25 | 4.10
2 | MDC1 14-residue peptide phosphorylated only on T331 | 4.24 | –
